Test results from PMC11014265.
Where two headings read alike, the source gives them in different places.

Experiments:
Assay in all cases: fluorescence anisotropy
[1] = target: T1, HrpA1-1300 (full-length) (Escherichia coli, UniProt P43329 1-1300)
T1 sequence: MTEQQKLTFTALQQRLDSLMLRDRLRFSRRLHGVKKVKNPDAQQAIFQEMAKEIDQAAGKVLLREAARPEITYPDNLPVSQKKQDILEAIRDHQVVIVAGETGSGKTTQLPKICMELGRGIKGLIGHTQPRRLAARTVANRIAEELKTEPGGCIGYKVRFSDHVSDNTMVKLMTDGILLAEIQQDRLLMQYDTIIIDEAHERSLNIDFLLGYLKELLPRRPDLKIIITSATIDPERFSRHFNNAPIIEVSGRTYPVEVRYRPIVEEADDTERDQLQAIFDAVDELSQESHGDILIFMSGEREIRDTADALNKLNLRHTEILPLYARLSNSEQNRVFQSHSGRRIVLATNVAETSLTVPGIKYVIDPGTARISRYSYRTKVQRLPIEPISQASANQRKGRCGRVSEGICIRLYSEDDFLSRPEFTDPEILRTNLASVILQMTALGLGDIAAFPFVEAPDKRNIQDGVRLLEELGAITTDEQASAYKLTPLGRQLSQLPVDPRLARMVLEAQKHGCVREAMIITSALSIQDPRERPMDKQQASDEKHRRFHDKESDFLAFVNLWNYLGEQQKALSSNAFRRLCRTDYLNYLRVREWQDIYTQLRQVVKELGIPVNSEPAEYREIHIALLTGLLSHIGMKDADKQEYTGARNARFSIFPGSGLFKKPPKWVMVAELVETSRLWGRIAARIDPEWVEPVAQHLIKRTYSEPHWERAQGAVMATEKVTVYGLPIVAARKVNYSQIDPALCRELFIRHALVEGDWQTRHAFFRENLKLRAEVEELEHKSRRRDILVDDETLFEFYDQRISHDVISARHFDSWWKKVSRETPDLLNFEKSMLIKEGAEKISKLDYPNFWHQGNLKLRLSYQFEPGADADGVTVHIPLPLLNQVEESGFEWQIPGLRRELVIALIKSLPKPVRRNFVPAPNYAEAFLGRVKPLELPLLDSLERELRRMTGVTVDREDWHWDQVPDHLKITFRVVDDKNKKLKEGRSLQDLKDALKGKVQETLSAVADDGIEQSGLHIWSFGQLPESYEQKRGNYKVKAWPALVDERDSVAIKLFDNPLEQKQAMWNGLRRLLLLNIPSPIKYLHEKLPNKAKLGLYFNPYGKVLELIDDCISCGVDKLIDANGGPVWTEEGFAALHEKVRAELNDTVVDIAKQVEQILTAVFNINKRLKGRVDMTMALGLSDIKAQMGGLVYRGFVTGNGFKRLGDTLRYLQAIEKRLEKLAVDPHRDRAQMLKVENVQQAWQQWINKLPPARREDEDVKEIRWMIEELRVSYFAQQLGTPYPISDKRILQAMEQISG

[2] = target: T2, HrpA75-758 (no APHB) (Escherichia coli, UniProt P43329 75-758)
T2 sequence: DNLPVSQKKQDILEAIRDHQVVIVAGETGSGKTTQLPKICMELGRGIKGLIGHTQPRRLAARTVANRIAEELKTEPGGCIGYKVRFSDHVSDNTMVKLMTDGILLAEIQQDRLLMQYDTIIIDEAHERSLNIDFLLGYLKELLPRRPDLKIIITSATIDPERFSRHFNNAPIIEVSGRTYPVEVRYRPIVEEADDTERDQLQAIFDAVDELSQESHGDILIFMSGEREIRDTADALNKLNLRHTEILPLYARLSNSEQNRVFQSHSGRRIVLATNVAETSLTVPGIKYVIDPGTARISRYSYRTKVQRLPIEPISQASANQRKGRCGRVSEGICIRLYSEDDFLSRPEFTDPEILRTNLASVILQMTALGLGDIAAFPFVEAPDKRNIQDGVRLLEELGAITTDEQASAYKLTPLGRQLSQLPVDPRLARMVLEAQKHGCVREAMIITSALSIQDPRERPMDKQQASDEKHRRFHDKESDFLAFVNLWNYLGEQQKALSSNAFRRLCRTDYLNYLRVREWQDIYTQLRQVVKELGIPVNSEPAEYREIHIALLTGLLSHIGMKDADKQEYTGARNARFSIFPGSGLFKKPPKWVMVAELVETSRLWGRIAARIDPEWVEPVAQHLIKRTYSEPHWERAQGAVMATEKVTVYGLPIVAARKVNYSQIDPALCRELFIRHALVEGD

[3] = target: T3, HrpA75-1300 (no APHB) (Escherichia coli, UniProt P43329 75-1300)
T3 sequence: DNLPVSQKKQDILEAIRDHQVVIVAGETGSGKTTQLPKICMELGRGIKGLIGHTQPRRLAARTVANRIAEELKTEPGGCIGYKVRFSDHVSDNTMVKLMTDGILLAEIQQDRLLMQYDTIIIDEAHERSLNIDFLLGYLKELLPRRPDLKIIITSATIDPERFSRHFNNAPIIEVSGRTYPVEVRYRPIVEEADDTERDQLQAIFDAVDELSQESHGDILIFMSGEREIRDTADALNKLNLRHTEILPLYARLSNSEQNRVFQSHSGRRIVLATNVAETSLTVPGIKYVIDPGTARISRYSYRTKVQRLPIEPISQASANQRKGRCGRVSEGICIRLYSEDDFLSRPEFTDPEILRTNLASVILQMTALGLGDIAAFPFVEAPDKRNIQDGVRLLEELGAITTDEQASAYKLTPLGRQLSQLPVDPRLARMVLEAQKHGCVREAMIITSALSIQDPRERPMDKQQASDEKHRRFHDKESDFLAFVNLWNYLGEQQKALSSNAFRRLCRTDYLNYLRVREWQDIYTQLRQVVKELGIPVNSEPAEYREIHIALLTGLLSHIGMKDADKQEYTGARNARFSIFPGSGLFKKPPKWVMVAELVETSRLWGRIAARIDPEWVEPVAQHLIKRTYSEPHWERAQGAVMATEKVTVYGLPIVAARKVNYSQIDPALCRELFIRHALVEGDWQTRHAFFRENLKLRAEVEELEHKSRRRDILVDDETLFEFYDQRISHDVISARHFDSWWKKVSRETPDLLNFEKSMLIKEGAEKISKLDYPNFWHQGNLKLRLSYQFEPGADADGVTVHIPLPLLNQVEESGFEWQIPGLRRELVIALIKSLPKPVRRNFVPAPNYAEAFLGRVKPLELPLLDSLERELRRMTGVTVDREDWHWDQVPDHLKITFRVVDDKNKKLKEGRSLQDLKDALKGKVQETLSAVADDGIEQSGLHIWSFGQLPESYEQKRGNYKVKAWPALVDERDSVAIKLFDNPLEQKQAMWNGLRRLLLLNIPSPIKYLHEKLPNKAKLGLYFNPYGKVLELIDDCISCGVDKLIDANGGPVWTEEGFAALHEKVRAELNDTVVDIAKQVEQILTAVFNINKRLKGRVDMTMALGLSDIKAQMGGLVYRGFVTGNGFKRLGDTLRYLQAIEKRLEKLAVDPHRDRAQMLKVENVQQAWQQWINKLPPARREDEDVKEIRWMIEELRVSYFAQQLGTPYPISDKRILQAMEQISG

[4] = target: T2, HrpA75-758 (no APHB); remark: listed apart in the source
[5] = target: T3, HrpA75-1300 (no APHB); remark: listed apart in the source
[6] = target: T3, HrpA75-1300 (no APHB); remark: listed apart in the source
[7] = target: T3, HrpA75-1300 (no APHB); remark: listed apart in the source
[8] = target: T3, HrpA75-1300 (no APHB); remark: listed apart in the source
[9] = target: T4, HrpA1-1300 E49A (Escherichia coli, UniProt P43329 1-1300, E49A)
T4 sequence: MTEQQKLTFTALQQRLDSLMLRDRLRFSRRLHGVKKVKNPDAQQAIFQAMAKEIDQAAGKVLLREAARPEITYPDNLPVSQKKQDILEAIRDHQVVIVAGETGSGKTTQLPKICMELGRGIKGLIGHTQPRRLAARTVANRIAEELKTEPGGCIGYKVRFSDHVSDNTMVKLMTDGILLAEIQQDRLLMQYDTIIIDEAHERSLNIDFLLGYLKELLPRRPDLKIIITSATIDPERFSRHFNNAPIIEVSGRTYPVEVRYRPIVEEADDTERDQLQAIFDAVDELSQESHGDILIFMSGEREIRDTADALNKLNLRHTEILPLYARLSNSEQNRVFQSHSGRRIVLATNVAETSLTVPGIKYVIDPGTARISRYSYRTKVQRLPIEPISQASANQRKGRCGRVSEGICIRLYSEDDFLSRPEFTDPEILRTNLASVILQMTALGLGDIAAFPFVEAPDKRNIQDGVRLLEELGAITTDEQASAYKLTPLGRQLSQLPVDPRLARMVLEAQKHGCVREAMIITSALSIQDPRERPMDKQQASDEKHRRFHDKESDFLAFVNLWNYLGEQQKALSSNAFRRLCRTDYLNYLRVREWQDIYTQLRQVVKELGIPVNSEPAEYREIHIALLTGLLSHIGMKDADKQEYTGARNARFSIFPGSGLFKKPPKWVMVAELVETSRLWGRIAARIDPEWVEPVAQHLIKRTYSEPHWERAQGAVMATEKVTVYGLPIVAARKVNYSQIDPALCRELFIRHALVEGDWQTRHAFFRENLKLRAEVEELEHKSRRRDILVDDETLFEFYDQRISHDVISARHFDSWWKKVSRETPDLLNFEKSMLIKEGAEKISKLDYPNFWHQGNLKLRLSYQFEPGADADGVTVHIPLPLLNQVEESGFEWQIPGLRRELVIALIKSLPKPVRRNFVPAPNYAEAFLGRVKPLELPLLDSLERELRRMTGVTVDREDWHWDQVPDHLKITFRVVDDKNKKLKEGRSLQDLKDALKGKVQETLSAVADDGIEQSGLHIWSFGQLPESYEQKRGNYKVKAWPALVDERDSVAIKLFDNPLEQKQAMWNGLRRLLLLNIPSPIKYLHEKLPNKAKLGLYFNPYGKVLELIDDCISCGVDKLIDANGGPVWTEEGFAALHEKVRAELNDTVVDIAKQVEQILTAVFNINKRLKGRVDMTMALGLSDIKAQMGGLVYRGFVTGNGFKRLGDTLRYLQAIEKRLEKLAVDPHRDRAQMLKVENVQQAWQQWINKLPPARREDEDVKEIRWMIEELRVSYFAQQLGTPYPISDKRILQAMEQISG

[10] = target: T3, HrpA75-1300 (no APHB); remark: listed apart in the source
[11] = target: T4, HrpA1-1300 E49A; remark: listed apart in the source

## TTTTTTTTTTTT (ssDNA) [D-T12]
[1]
  Kd: 307 nM

## CCCCCCCCCCCC (ssRNA) [R-C12]
[2]
  binding signal: > 3 fold reduction
[3]
  binding signal: > 9 fold reduction

## GUGUGUGUGUGU (ssRNA) [R-G-rich]
[4]
  binding signal: > 3 fold reduction
[5]
  binding signal: > 9 fold reduction

## UUUUUUUUUUUU (ssRNA) [R-U12]
[2]
  binding signal: > 3 fold reduction
[6]
  binding signal: > 2 fold reduction

## AAAAAAAAAAAA (ssRNA) [R-A12]
[4]
  binding signal: > 3 fold reduction
[7]
  binding signal: > 3 fold reduction

## CCCCCCCCCCCC (ssDNA) [D-C12]
[8]
  binding result: no binding
[9]
  binding result: binds

## GTGTGTGTGTGT (ssDNA) [D-G-rich]
[10]
  binding result: no binding
[11]
  binding result: binds
